The record followed here is patent US20260242478A1 (published 2026).

Where no end group is shown, it is not given here. A value given as a limit tells only on which side of the number the result lay.

Test [1] concerns the target T1, Anti-PSMA Fab (SEQ ID NOs: 19, 20).
T1 construct: also called 006 PSMA Fab
Put plainly: phage ELISA; clonal phage on captured PSMA Fab pre-incubated with PSMA antigen as competitor, anti-M13 HRP detection.
Protocol: (§1) Clonal phage were harvested as crude supernatants and screened via standard ELISAs. […] Prior to the addition of clonal phage. wells were incubated with blocking buffer and PSMA antigen or blocking buffer alone. Without washing or aspirating, clonal phage supernatants were then added to the wells and incubated for a short time. Wells were then washed followed by detection of bound phage using a horse radish conjugated anti-M13 antibody.

The target is the same in test [2]. The test can be described thus: phage ELISA; clonal phage supernatant on biotinylated PSMA Fab captured on neutravidin plates, anti-M13 HRP detection.
Protocol: as §1
In test [3] the target is anti-CD28 Fab. Put plainly: competition ELISA, peptide titrated 0-100 uM against 1 nM anti-CD28 Fab, plate-bound CD28 as competitor.
Target sequence in this assay (VH, as listed by the source, chain 1 of 2): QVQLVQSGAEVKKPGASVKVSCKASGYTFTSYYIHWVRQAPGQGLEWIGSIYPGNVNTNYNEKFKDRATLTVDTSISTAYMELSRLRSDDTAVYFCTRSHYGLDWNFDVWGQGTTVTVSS
Target sequence in this assay (VL, as listed by the source, chain 2 of 2): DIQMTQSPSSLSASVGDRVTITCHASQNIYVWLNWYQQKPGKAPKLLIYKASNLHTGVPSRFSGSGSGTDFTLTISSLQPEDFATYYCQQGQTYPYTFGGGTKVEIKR
For test [4], the target named is T2, Anti-CD28 Fab (SEQ ID NOs: 696, 697).
T2 construct: In the phage ELISA the Fab was biotinylated and captured on neutravidin coated plates
T2 sequence (VH, as listed by the source, chain 1 of 2): as the sequence (VH, as listed by the source, chain 1 of 2) above
T2 sequence (VL, as listed by the source, chain 2 of 2): as the sequence (VL, as listed by the source, chain 2 of 2) above
Put plainly: phage binding ELISA on plate-captured Fab, competitor CD28 antigen.
Protocol: (§2) After panning, phage infected bacteria were plated out and colonies picked into 96 well blocks. Clonal phage was then amplified and separated from bacterial cells via centrifugation.
(§3) Clonal phage were harvested as crude supematants and screened via standard ELISAs. […] Prior to the addition of clonal phage, wells were incubated with blocking buffer and CD28 antigen or blocking buffer alone. Without washing or aspirating, clonal phage supematants were then added to the wells and incubated for a short time. Wells were then washed followed by detection of bound phage using a horse radish conjugated anti-M13 antibody. Clonal phage of interest were then sent for sequence analysis.

Test [5] shares this target. The test can be described thus: phage binding ELISA, biotinylated Fab on neutravidin plate, anti-M13 HRP detection.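 Also: crude clonal phage supernatants added to Fab-coated wells pretreated with CD28 antigen or with blocking buffer only, bound phage measured after washing.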
Protocol: as §2, §3
Test [6] concerns the target anti-CD28 Fab. Put plainly: BLI (Octet): biotinylated peptide on streptavidin sensor, anti-CD28 Fab titrated in solution, 1:1 model.
Target sequence in this assay (VH, as listed by the source, chain 1 of 2): as the sequence (VH, as listed by the source, chain 1 of 2) above
Target sequence in this assay (VL, as listed by the source, chain 2 of 2): as the sequence (VL, as listed by the source, chain 2 of 2) above

On to WCWVQDDRRHVVCG [Phage-1751], for which, in test [1], the “Phage binding ELISA, Anti-PSMA Fab signal in the presence of PSMA” value (“Phage binding ELISA … of PSMA” for short) is 0.0549. Further, the “Phage binding ELISA, Anti-PSMA Fab (SEQ ID NOs: 19, 20) signal” value in test [2] is 1.19.
YCEGHLPEYLGKCL [Peptide-125] showed an IC50 in the test with anti-CD28 Fab [3] of 830 nM.
Molecule YCEGHLPEYLAKCL gave an IC50 with anti-CD28 Fab [3] of 300 nM.
In the test with anti-CD28 Fab [3], HCSGHHWLQVWKCF [Peptide-130] came in with an IC50 above 100000 nM.
YCEGHSQEYLWKCL [Peptide-128]: the IC50 with anti-CD28 Fab [3] was 9660 nM.
In the case of QCVWDNFNYWMDCD [Phage-1753], in test [1], the “Phage binding ELISA … of PSMA” value is 0.0667. The “Phage binding ELISA, Anti-PSMA Fab (SEQ ID NOs: 19, 20) signal” value in test [2] turned out to be 0.772.

B1: Phage-457 (peptide)
peptide: PDCQTILFKPWCVR
modifications: cysteine pairing not given here; also: displayed on phage, fused to pIII
notes: Clonal phage supernatant; not shown: bacteriophage pIII to which the peptide is fused for display
Turning to B1, in test [4], the “Anti-CD28 Fab signal in the presence of CD28” value (shortened to “Anti-CD28 Fab signal”) was 0.06. In addition, the “Anti-CD28 Fab (SEQ ID NOs: 696, 697) signal” value in test [5] worked out at 2.09.
As to SKLLCVPPWMCYHV [Phage-1744], in test [1], the “Phage binding ELISA … of PSMA” value is 0.0794. The “Phage binding ELISA, Anti-PSMA Fab (SEQ ID NOs: 19, 20) signal” value in test [2] stood at 0.806.

B2: Phage-466 (peptide)
peptide: YCAGHAWQYINKCL
modifications: cysteine pairing not given here; also: displayed on phage, fused to pIII
notes: as for B1
Turning to B2, the “Anti-CD28 Fab signal” value in test [4] was 0.07. Also, in test [5], the “Anti-CD28 Fab (SEQ ID NOs: 696, 697) signal” value is 0.64.
With YCEGHAPEYIAKCL (cysteine pairing not given here; also: biotinylated, site not given here), in the test with anti-CD28 Fab [6], the Kd is 831 nM, the koff was determined as 0.028 s⁻¹, the kon stood at 33700 M⁻¹ s⁻¹ and the “t1/2” value was found to be 24 s.
For the molecule YCWSHSPPFIKKCY [Peptide-131], the IC50 in the test with anti-CD28 Fab [3] was above 100000 nM.

B3: Phage-454 (peptide)
peptide: YWSCFQIPFTCFYF
notes: as for B1
Regarding B3, the “Anti-CD28 Fab signal” value in test [4] stood at 0.27. Also, in test [5], the “Anti-CD28 Fab (SEQ ID NOs: 696, 697) signal” value is 1.44.
Molecule YCEGHEGIYFWKCL [Peptide-119] showed a half-maximal inhibitory concentration (IC50) in the test with anti-CD28 Fab [3] of 77700 nM.
On the same count and under the same terms, the figure for YCEGHSPEYILKCL [Peptide-117] is 1530 nM.
As for YCEGHRPEYILKCL [Peptide-118], the IC50 with anti-CD28 Fab [3] turned out to be 13300 nM.
Turning to HCLWHESSGRVLCF [Phage-1742], in test [1], the “Phage binding ELISA … of PSMA” value was found to be 0.0678. Besides, the “Phage binding ELISA, Anti-PSMA Fab (SEQ ID NOs: 19, 20) signal” value in test [2] came to 2.15.
On to PLCGTEEVWWECRL [Phage-1747], for which the “Phage binding ELISA … of PSMA” value in test [1] was 0.0826. For the same molecule, the “Phage binding ELISA, Anti-PSMA Fab (SEQ ID NOs: 19, 20) signal” value in test [2] came to 1.78.
Take LTRCVPDWMCYRAV [Phage-1748]: the “Phage binding ELISA … of PSMA” value in test [1] was 0.0708. Moreover, in test [2], the “Phage binding ELISA, Anti-PSMA Fab (SEQ ID NOs: 19, 20) signal” value amounted to 1.17.
For YCEGHSSEYIQKCL [Peptide-129], the IC50 in the test with anti-CD28 Fab [3] worked out at 3180 nM.
As for QLPCHYWGEWCPQA [Phage-1745], the “Phage binding ELISA … of PSMA” value in test [1] worked out at 0.0537. The “Phage binding ELISA, Anti-PSMA Fab (SEQ ID NOs: 19, 20) signal” value in test [2] was determined as 1.39.
In the case of DCHWNKATWWMDCE [Phage-1757], in test [1], the “Phage binding ELISA … of PSMA” value came to 0.0828. Besides, the “Phage binding ELISA, Anti-PSMA Fab (SEQ ID NOs: 19, 20) signal” value in test [2] amounted to 1.18.
Consider YCEGHLPEYIEKCL (cysteine pairing not given here; also: biotinylated, site not given here), for which, in the test with anti-CD28 Fab [6], the Kd was 926 nM, the koff turned out to be 0.0239 s⁻¹, the kon was found to be 25800 M⁻¹ s⁻¹ and the “t1/2” value was 30 s.

B4: Peptide-126 (peptide)
peptide: YCEGHLPEYREKCL
modifications: not fully specified; cysteine pairing not given here; also: biotinylated, site not given here
Take B4: in the test with anti-CD28 Fab [6], the “t1/2” value is 36 s.

B5: Peptide-127 (peptide)
peptide: YCEGHLPEYLAKCL
modifications: not fully specified; cysteine pairing not given here; also: biotinylated, site not given here
For the molecule B5, in the test with anti-CD28 Fab [6], the Kd is 44.7 nM and the “t1/2” value amounted to 60 s.
Regarding MCQWDKINYWMDCD [Phage-1755], the “Phage binding ELISA … of PSMA” value in test [1] is 0.049. Moreover, the “Phage binding ELISA, Anti-PSMA Fab (SEQ ID NOs: 19, 20) signal” value in test [2] came to 1.81.

B6: Phage-455 (peptide)
peptide: WECLKYTEANACTY
notes: as for B1
On to B6, for which, in test [4], the “Anti-CD28 Fab signal” value came to 0.07. In test [5], the “Anti-CD28 Fab (SEQ ID NOs: 696, 697) signal” value amounted to 1.55.
As for FWECYSSFCRFVEG [Phage-1746], in test [1], the “Phage binding ELISA … of PSMA” value is 0.139. Also, in test [2], the “Phage binding ELISA, Anti-PSMA Fab (SEQ ID NOs: 19, 20) signal” value is 1.46.
Turning to YCEGHLPEYIEKCL, the half-inhibitory concentration (IC50) in the test with anti-CD28 Fab [3] worked out at 360 nM.
In the case of YCEGHLPEYIWKCL [Peptide-135], in the test with anti-CD28 Fab [3], the IC50 stood at 630 nM.
With YCEGHAPEYIGKCL [Peptide-136], the IC50 in the test with anti-CD28 Fab [3] is 4120 nM.
YCEGHAPEYIRKCL [Peptide-122]: in the test with anti-CD28 Fab [3], the IC50 was 2220 nM.
In the case of YCEGHAPEYIWKCL [Peptide-123], the IC50 with anti-CD28 Fab [3] came to 1320 nM.
In the test with anti-CD28 Fab [3], YCEGHAPEYIAKCL gave an IC50 of 480 nM.
MCQWDELNYWMDCD [Phage-1752]: the “Phage binding ELISA … of PSMA” value in test [1] is 0.0565. In test [2], the “Phage binding ELISA, Anti-PSMA Fab (SEQ ID NOs: 19, 20) signal” value stood at 1.65.

B7: Phage-456 (peptide)
peptide: FMCLPQNPHPLCFK
notes: as for B1
Take B7: the “Anti-CD28 Fab signal” value in test [4] is 0.06. Also, in test [5], the “Anti-CD28 Fab (SEQ ID NOs: 696, 697) signal” value came to 0.84.
With QCVWDRGTWWMACD [Phage-1759], the “Phage binding ELISA … of PSMA” value in test [1] came to 0.052. Further, the “Phage binding ELISA, Anti-PSMA Fab (SEQ ID NOs: 19, 20) signal” value in test [2] was found to be 0.414.
As to QCTWNEKTWWMECE [Phage-1754], in test [1], the “Phage binding ELISA … of PSMA” value is 0.0568. The “Phage binding ELISA, Anti-PSMA Fab (SEQ ID NOs: 19, 20) signal” value in test [2] came out at 1.35.
Turning to MEYCSFHRFTCVLW [Phage-1743], the “Phage binding ELISA … of PSMA” value in test [1] came to 0.116. Also, the “Phage binding ELISA, Anti-PSMA Fab (SEQ ID NOs: 19, 20) signal” value in test [2] amounted to 1.93.
MCFVTGWGVPDDCN [Phage-1758]: the “Phage binding ELISA … of PSMA” value in test [1] was determined as 0.0694. Besides, in test [2], the “Phage binding ELISA, Anti-PSMA Fab (SEQ ID NOs: 19, 20) signal” value came to 0.638.
With YCWVDADMWLIFRC [Phage-1749], the “Phage binding ELISA … of PSMA” value in test [1] came to 0.275. In addition, the “Phage binding ELISA, Anti-PSMA Fab (SEQ ID NOs: 19, 20) signal” value in test [2] was determined as 1.01.
In the test with anti-CD28 Fab [3], YCEGHLPEYLEKCV [Peptide-133] yielded an IC50 of 2900 nM.
Consider ILPCHWYTSDCPQH (also called Peptide-200) [Phage-1750], for which the “Phage binding ELISA … of PSMA” value in test [1] came to 0.117. Further, the “Phage binding ELISA, Anti-PSMA Fab (SEQ ID NOs: 19, 20) signal” value in test [2] amounted to 1.63.
As for QCVWDLTNYWMNCD [Phage-1756], the “Phage binding ELISA … of PSMA” value in test [1] was 0.057. Also, the “Phage binding ELISA, Anti-PSMA Fab (SEQ ID NOs: 19, 20) signal” value in test [2] is 1.3.
In the test with anti-CD28 Fab [3], YCEGHSQENIWKCL [Peptide-124] returned an IC50 of 4070 nM.
